Assay [1] has as its target PD-L1-His tagged, human recombinant, HEK293-derived, Phe19-Thr239 (R&D systems Cat #9049-B7-100) (human) (UniProt Q9NZQ7). Kind of assay: SPR (Reichert), antibody immobilized directly, PD-L1-His in solution, 1:1 model, 25 C.
The target in assay [2] is PD-L1-Fc, human IgG Fc fusion protein, human recombinant, HEK293-derived, Phe19-Thr239 (R&D systems Cat #156-B7-100) (human) (UniProt Q9NZQ7). Kind of assay: SPR (Reichert), PD-L1-Fc immobilized, antibody in solution, 1:1 model, 25 C.
Assay [3] addresses CD16a receptor (Fc gamma receptor) (UniProt P08637). Kind of assay: method not stated.
Assay [4] addresses CD32a receptor (Fc gamma receptor) (UniProt P12318). Kind of assay: method not stated.
Assay [5] has as its target PD-L1-His tagged, human recombinant, HEK293-derived, Phe19-Thr239 (R&D systems Cat #9049-B7-100) (human) (UniProt Q9NZQ7). Kind of assay: SPR, captured antibody, PD-L1-His in solution. (In general: Surface plasmon resonance follows binding to a sensor surface in real time, without labels.)
The target is the same in assay [6]. Kind of assay: SPR (Reichert), antibody captured by immobilized anti-human IgG, PD-L1-His in solution, 1:1 model, 25 C.
For assay [7], the target named is human PD-L1 on primary human cells in the dendritic cell / CD4+ T cell mixed lymphocyte reaction (human) (UniProt Q9NZQ7). Kind of assay: cell-based or functional assay.
The next assay has as its target C1q (Sigma, Cat #C1740) (UniProt P02745). Kind of assay: ELISA: antibody coated at 0-25 µg/mL, C1q at 2 µg/mL, anti-C1q-HRP. (An ELISA detects its analyte on a solid surface through an enzyme-linked reagent.)

Chain of PD-L1-His tagged, human recombinant, HEK293-derived, Phe19-Thr239 (R&D systems Cat #9049-B7-100) (human) (Q9NZQ7 19-239 limits assumed): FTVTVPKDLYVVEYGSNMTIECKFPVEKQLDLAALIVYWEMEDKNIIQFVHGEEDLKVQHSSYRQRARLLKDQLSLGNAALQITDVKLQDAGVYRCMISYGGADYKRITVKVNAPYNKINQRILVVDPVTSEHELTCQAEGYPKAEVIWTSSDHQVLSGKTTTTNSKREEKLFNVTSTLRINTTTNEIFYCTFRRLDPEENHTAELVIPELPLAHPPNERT
Chain of CD32a receptor (Fc gamma receptor) (P12318 36-218): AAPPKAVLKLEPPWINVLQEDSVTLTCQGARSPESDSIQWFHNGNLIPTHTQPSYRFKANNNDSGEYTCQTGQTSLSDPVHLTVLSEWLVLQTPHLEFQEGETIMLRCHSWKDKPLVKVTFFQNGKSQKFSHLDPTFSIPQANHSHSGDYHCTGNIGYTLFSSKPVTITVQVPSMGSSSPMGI
Chain of human PD-L1 on primary human cells in the dendritic cell / CD4+ T cell mixed lymphocyte reaction (human) (Q9NZQ7 19-290): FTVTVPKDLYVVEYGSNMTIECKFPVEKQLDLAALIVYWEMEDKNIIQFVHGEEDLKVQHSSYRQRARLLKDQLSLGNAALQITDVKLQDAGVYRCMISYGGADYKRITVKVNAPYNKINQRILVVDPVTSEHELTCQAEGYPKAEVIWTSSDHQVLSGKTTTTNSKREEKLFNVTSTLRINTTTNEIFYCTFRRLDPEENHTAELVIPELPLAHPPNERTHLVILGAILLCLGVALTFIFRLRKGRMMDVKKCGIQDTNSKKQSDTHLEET
Chain of C1q (Sigma, Cat #C1740) (P02745 23-245 limits assumed, chain 1 of 3): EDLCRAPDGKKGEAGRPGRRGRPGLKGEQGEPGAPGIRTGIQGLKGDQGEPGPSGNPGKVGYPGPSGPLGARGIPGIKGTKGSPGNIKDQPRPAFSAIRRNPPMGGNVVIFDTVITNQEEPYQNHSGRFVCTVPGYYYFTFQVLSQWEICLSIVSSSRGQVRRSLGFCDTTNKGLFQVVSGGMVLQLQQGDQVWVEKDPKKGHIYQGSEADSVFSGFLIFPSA
Chain of C1q (Sigma, Cat #C1740) (P02746 28-253 limits assumed, chain 2 of 3, further chain): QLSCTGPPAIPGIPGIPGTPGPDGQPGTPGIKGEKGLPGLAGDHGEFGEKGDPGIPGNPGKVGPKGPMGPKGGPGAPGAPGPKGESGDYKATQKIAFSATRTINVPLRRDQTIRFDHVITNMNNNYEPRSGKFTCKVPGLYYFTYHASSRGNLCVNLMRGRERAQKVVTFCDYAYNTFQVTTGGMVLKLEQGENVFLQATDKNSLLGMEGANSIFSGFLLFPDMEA
Chain of C1q (Sigma, Cat #C1740) (P02747 29-245 limits assumed, chain 3 of 3, further chain): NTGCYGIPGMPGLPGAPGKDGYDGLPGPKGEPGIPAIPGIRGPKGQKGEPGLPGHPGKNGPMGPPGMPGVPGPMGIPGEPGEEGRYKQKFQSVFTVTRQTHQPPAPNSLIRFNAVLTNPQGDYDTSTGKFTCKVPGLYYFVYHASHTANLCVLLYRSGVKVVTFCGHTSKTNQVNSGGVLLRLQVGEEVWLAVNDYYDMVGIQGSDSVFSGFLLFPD
Chain of CD16a receptor (Fc gamma receptor) (P08637 17-208 limits assumed): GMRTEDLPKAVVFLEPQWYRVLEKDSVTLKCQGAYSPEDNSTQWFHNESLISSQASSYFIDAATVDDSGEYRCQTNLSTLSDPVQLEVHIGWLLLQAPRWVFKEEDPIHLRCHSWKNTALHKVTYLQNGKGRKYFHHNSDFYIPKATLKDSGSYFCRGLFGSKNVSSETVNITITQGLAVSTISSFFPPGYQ
Chain of PD-L1-Fc, human IgG Fc fusion protein, human recombinant, HEK293-derived, Phe19-Thr239 (R&D systems Cat #156-B7-100) (human) (Q9NZQ7 19-239 limits assumed): as the sequence (Q9NZQ7 19-239 limits assumed) above

As to “atezolizumab (Tecentriq), Genentech Inc, Lot 3109904 (antibody)”, the Kd amounted to 0.62 nM in assay [1]; 0.26 nM in assay [2]; 16000 nM in assay [3]; 41000 nM in assay [4]; 0.67 nM in assay [6]. In assay [5], the binding affinity against that of B60-55-1 (log) worked out at 2 log. In assay [7], this substance returned an EC50 of IL-2 secretion in mixed lymphocyte reaction (MLR) of 21.5 nM. Besides, in the assay with C1q (Sigma, Cat #C1740), the EC50 came to 14.9 µg/mL.

One may read the Kd as the equilibrium constant for the complex coming apart. For orientation: EC50 means the concentration at which the effect is half-maximal. Low readings indicate a more potent agent, high ones a less potent agent.

(Values after patent US20210115143A1.)
